Columns and labels:
[1] = target: soluble CD16A (sCD16A) (human) (UniProt P08637); experiment: SPR (BIAcore), receptor immobilised
soluble CD32B (sCD32B) [2] = target: T1, soluble CD32B (sCD32B) (human, UniProt P31994 43-217); experiment: SPR sensorgrams with sCD32B; printed under the panel
T1 construct: extracellular domain; also called FcγRIIB; soluble CD32B ectodomain
T1 sequence (looked up): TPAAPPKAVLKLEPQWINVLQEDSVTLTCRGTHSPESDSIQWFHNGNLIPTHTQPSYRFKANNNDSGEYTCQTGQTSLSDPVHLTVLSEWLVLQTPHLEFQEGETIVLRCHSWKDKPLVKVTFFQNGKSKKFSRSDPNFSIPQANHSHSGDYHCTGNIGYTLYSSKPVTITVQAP

[3] = target: T2, human serum albumin (HSA) (human, UniProt P02768 25-609); experiment: SPR sensorgrams with HSA; printed under the panel
T2 construct: also called HRP-human albumin

soluble CD16A (sCD16A) [4] = target: T3, soluble CD16A (sCD16A) (human, UniProt P08637 17-208); experiment: dual ELISA: CD16A coated, DART titrated, biotinylated sCD32B detection, without HSA
T3 construct: extracellular domain; given only as soluble; immobilised in SPR, plate coat or biotin/HRP-labelled probe in ELISA; also called FcγRIIIA; sCD16A-Biotin

soluble CD16A(158F) = target: T4, soluble CD16A(158F) (human, UniProt P08637 17-208); experiment: SPR sensorgrams with sCD16A (158F per paragraph 834); printed under the panel
T4 construct: extracellular domain; also called CD16A(F158); sCD16A

soluble CD16A (sCD16A) [5] = target: T3, soluble CD16A (sCD16A); experiment: dual ELISA: CD16A coated, DART titrated, biotinylated sCD32B detection, with 3 mg/ml HSA
soluble CD32A (sCD32A) = target: T5, soluble CD32A (sCD32A) (UniProt P12318 34-217, limits assumed); experiment: SPR (BIAcore): sCD32A (negative control) immobilised, diabody injected for 60 s
T5 construct: extracellular domain; also called sCD32A (negative control)
T5 sequence (looked up): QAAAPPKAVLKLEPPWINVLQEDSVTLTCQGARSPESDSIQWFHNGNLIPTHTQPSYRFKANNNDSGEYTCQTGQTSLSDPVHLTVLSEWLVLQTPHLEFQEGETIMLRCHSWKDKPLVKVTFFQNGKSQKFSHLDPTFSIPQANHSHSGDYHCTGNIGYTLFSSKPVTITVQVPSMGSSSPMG

soluble CD32B (sCD32B) [6] = target: T1, soluble CD32B (sCD32B); experiment: SPR (BIAcore), receptor immobilised
soluble CD16A (sCD16A) [7] = target: T3, soluble CD16A (sCD16A); experiment: SPR (BIAcore): sCD16 immobilised, diabody injected for 60 s
soluble CD16A (sCD16A) [8] = target: T3, soluble CD16A (sCD16A); experiment: sandwich ELISA on conditioned medium: soluble FcRIIb-G2-Agly coated, FcRIIIa-G2-Biotin probe and streptavidin-HRP
soluble CD32B (sCD32B) [9] = target: T1, soluble CD32B (sCD32B); experiment: sandwich ELISA: sCD32B coated (sCD32B-Ig, 2 ug/ml), diabody titrated, labelled sCD16A as probe; signal needs both bindings
Experimental: The binding of eluted and purified diabodies was characterized by ELISA assay, as described in 5.4.2. 50 ul/well of a 2 ug/ml solution of sCD32B-Ig was coated on 96-well Maxisorp plate in Carbonate buffer at 4° C. over night. The plate was washed three times with PBS-T (PBS, 0.1% Tween 20) and blocked by 0.5% BSA in PBS-T for 30 minutes at room temperature. […] The plate was then incubated at room temperature for 1 hour. After washing with PBS-T three times, 50 ul/well of 0.2 ug/ml sCD16A-Biotin was added to each well. The plate was again incubated at room temperature for 1 hour. After washing with PBS-T three times, 50 ul/well of a 1:5000 dilution of HRP conjugated streptavidin (Amersham Pharmacia Biotech) was used for detection. The HRP-streptavidin was allowed to incubate for 45 minutes at room temperature. The plate was washed with PBS-T three times and developed using 80 ul/well of TMB substrate. After a 10 minute incubation, the HRP-TMB reaction was stopped by adding 40 ul/well of 1% H₂SO₄.

soluble CD32B (sCD32B) [10] = target: T1, soluble CD32B (sCD32B); experiment: sandwich ELISA on conditioned medium: soluble FcRIIb-G2-Agly coated (100 ng/well), diabody titrated, FcRIIIa-G2-Biotin probe and streptavidin-HRP; signal needs both bindings
Experimental: After three days in culture, the conditioned medium were harvested and characterized by binding ELISA.
100 ng/well of soluble FcRIIb-G2-Agly was coated on 96-well Maxisorp plate in Carbonate buffer at 40° C. overnight. Plate was washed three times with PBS/0.1% Tween20 and then blocked by 0.5% BSA in PBS/0.1% Tween 20 for 30 mins at room temperature before adding diabodies. […] The plate was incubated at room temperature for 1 hour. After washed with PBS/0.1% Tween20 three times, 10 ng/well of FcRIIIa-G2-Biotin was added to the plate. The plate was incubated at room temperature for 1 hour. After washed with PBS/0.1% Tween20 three times, 50 ul of 1:5000 dilution of HRP conjugated Streptavidin (Amersham Pharmacia Biotech) was used for detection. After 45 minutes incubation at room temperature, the plate was washed with PBS/0.1% Tween20 three times and developed using TMB substrate. After 10 minutes incubation, the reaction was stopped by 1% H2SO4. The OD450 nm was read by SOFTmax program.

soluble CD32B (sCD32B) [11] = target: T1, soluble CD32B (sCD32B); experiment: sandwich ELISA on conditioned medium: soluble FcRIIb-G2-Agly coated, FcRIIIa-G2-Biotin probe and streptavidin-HRP
[12] = target: T2, human serum albumin (HSA); experiment: Albumin Binding Assay; x axis hE16scFv-ABD Concentration (ug/ml); albumin taken as HSA as in Table 23
[13] = target: T2, human serum albumin (HSA); experiment: HSA binding class (+++ 0.7-1.0; ++ 0.4-0.7; + 0.1-0.4)
[14] = target: T2, human serum albumin (HSA); experiment: Albumin Binding Assay; x axis hE16scFv-ABD Concentration (ug/ml); albumin taken as HSA as in Table 23; remark: listed apart in the source
[15] = target: T2, human serum albumin (HSA); experiment: ABD-Binding Elisa; x axis Protein concentration (ug/ml); albumin taken as HSA as in Table 23

T3 sequence (P08637 17-208): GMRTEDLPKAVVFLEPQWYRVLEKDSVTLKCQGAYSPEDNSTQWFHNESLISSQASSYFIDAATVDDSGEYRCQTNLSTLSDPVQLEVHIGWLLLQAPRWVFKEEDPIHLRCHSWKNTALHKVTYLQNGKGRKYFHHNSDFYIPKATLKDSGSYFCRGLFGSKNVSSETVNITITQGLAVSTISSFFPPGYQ
T4 sequence (P08637 17-208): as above
soluble CD16A (sCD16A) (human), sequence (P08637 17-208): as above

h3G8 scFv
Kd [1]: 38.7 nM

B1: hCD16-hCD32B ABD-DART (bispecific antibody)
chain 1: DIVMTQSPDSLAVSLGERATINCKASQSVDFDGDSFMNWYQQKPGQPPKLLIYTTSNLESGVPDRFSGSGSGTDFTLTISSLQAEDVAVYYCQQSNEDPYTFGQGTKLEIKGGGSGGGGQVQLVQSGAEVKKPGASVKVSCKASGYTFTNYWIHWVRQAPGQGLEWIGVIDPSDTYPNYNKKFKGRVTMTVVVSTSTAYMELRSLRSDDTAVYYCARNGDSDYYSGMDYWGQGTTVTVSSGGCGGGKVAALKEKVAALKEKVAALKEKVAALKEGGGNS
chain 2: EIVLTQSPDFQSVTPKEKVTFTCRTSQSIGTNIHWYQQKPDQSPKLLIKEVSESISGVPSRFSGSGSGTDFTLTINSLEAEDAATYYCQQSNTWPFTFGGGTKVEIKGGGSGGGGQVTLRESGPALVKPTQTLTLTCTFSGFSLSTSGMGVGWIRQPPGKALEWLAHIWWDDDKRYNPALKSRLTISKDTSKNQVVLTMTNMDPVDTATYYCAQINPAWFAYWGQGTLVTVSSGGCGGGEVAALEKEVAALEKEVAALEKEVAALEKGGGNSLAEAKVLANRELDKYGVSDYYKNLINNAKTVEGVKALIDEILAALP
notes: also called DART ABD fusion; hCD16-hCD32B EK ABD-DART
Kd (soluble CD32B (sCD32B) [2]): 30 nM
koff (soluble CD32B (sCD32B) [2]): 0.0072 s⁻¹
kon (soluble CD32B (sCD32B) [2]): 240000 M⁻¹ s⁻¹
Kd [3]: 7.1 nM
koff [3]: 0.00064 s⁻¹
kon [3]: 90000 M⁻¹ s⁻¹
EC50 (read off the curve) (soluble CD16A (sCD16A) [4]): ~0.05 µg/mL
Kd (soluble CD16A(158F)): 137 nM
koff (soluble CD16A(158F)): 0.052 s⁻¹
kon (soluble CD16A(158F)): 380000 M⁻¹ s⁻¹
EC50 (read off the curve) (soluble CD16A (sCD16A) [5]): ~0.06 µg/mL

B2: h2B6 covalent monospecific diabody (CMD) (other)
chain: EIVLTQSPDFQSVTPKEKVTFTCRTSQSIGTNIHWYQQKPDQSPKLLIKEVSESISGVPSRFSGSGSGTDFTLTINSLEAEDAATYYCQQSNTWPFTFGGGTKVEIKGGGSGGGGQVQLVQSGAEVKKPGASVKVSCKASGYTFTNYWIHWVRQAPGQGLEWIGVIDPSDTYPNYNKKFKGRVTMTVVVSTSTAYMELRSLRSDDTAVYYCARNGDSDYYSGMDYWGQGTTVTVSSLGGC
modifications: covalent homodimer: two copies of this chain, disulfide-linked through the C-terminal LGGC cysteine
notes: covalent homodimer; also called h2B6 CMD; h2B6 diabody
binding result (soluble CD32A (sCD32A)): no binding (tested: 100 nM)
Kd (soluble CD32B (sCD32B) [6]): 21 nM
binding result (soluble CD16A (sCD16A) [7]): no binding (tested: 100 nM)

B3: Hu2B6 4.5 (other)
chain 1: B2 chain
chain 2: B2 chain
modifications: homodimer of two identical chains, joined by a disulfide between the C-terminal LGGC cysteines
notes: monospecific diabody, conditioned medium; also called Hu2B6 4.5 diabody
binding result (soluble CD16A (sCD16A) [8]): no binding (tested: 0.5 ug/ml)

B4: h2B6-h3G8 covalent bispecific diabody (CBD) (bispecific antibody)
chain 1: EIVLTQSPDFQSVTPKEKVTFTCRTSQSIGTNIHWYQQKPDQSPKLLIKEVSESISGVPSRFSGSGSGTDFTLTINSLEAEDAATYYCQQSNTWPFTFGGGTKVEIKGGGSGGGGQVTLRESGPALVKPTQTLTLTCTFSGFSLSTSGMGVGWIRQPPGKALEWLAHIWWDDDKRYNPALKSRLTISKDTSKNQVVLTMTNMDPVDTATYYCAQINPAWFAYWGQGTLVTVSSLGGC
chain 2: DIVMTQSPDSLAVSLGERATINCKASQSVDFDGDSFMNWYQQKPGQPPKLLIYTTSNLESGVPDRFSGSGSGTDFTLTISSLQAEDVAVYYCQQSNEDPYTFGQGTKLEIKGGGSGGGGQVQLVQSGAEVKKPGASVKVSCKASGYTFTNYWIHWVRQAPGQGLEWIGVIDPSDTYPNYNKKFKGRVTMTVVVSTSTAYMELRSLRSDDTAVYYCARNGDSDYYSGMDYWGQGTTVTVSSLGGC
notes: covalent heterodimer of constructs 1 and 2; also called h2B6-h3G8 CBD; h2B6-h3G8 diabody
EC50 (read off the curve) (soluble CD32B (sCD32B) [9]): ~0.05 µg/mL

B5: Hu2B6 4.5-Hu3G8 5.1 (bispecific antibody)
chain 1: B4 chain 2
chain 2: B4 chain 1
modifications: the two chains are joined by a disulfide between their C-terminal LGGC cysteines
notes: tested as conditioned medium of HEK-293 cells; also called Hu2B6 4.5-Hu3G8 5.1 biospecific diabody
EC50 (read off the curve) (soluble CD32B (sCD32B) [10]): ~0.05 µg/mL

B6: Hu3G8 5.1 (other)
chain 1: DIVMTQSPDSLAVSLGERATINCKASQSVDFDGDSFMNWYQQKPGQPPKLLIYTTSNLESGVPDRFSGSGSGTDFTLTISSLQAEDVAVYYCQQSNEDPYTFGQGTKLEIKGGGSGGGGQVTLRESGPALVKPTQTLTLTCTFSGFSLSTSGMGVGWIRQPPGKALEWLAHIWWDDDKRYNPALKSRLTISKDTSKNQVVLTMTNMDPVDTATYYCAQINPAWFAYWGQGTLVTVSSLGGC
chain 2: B6 chain 1
modifications: homodimer of two identical chains, joined by a disulfide between the C-terminal LGGC cysteines
notes: monospecific diabody, conditioned medium; also called Hu3G8 5.1 diabody
binding result (soluble CD32B (sCD32B) [11]): no binding (tested: 0.5 ug/ml)

LAEAKVLANRELDKYGVSDYYKNLADNAKTVEGVKALIDEILAALP (other, also called 65A/66D) [ABD3 I65A/N66D]
binding result [12]: binds

LAEAKVLANRELDKYGVSDYYKNAANNAKTAEGVKALIDEILAALP (other, also called 64A/65A/71A) [ABD3 L64A/I65A/V71A (ABD (AAA))]
HSA binding [13]: 0.4 to 0.7

LAEAKVLANRELDKYGVSDYYKNAANNAKTVEGVKALIDEILAALP (other, also called 64A/65A) [ABD3 L64A/I65A]
binding result [14]: binds

LAEAKVLANRELDKYGVSDYAKNLIDNAKTVEGVKALIDEILAALP (other, also called 61A/66D) [ABD3 Y61A/N66D]
binding result [14]: binds

LAEAKVLANRELDKYGVSDYYKNLINNAKSVEGVKALIDEILAALP (other) [ABD3 T70S]
HSA binding [13]: 0.7 to 1

LAEAKVLANRELDKYGVSDYYKNAIDNAKTVEGVKALIDEILAALP (other, also called 64A/66D) [ABD3 L64A/N66D]
binding result [14]: binds

LAEAKVLANRELDKYGVSDYAKNLISNAKTVEGVKALIDEILAALP (other, also called 61A/66S) [ABD3 Y61A/N66S]
binding result [15]: binds

LAEAKVLANRELDKYGVSDYYKNLISNAKTVEGVKALIDEILAALP (other) [ABD3 N66S]
binding result [15]: binds

LAEAKVLANRELDKYGVSDYAKNLINNAKSVEGVKALIDEILAALP (other) [Y61A/T70S]
binding result [15]: binds
